Assay results published in paper PMC10773802, “Electrochemical aptasensor fabricated by anchoring recognition aptamers and immobilizing redox probes on bipolar silica nanochannel array for reagentless detection of carbohydrate antigen 15-3”.

Target: carbohydrate antigen 15-3 (CA15-3) (UniProt P15941 24-1097)
Experiment: electrochemical aptasensor (DPV, CV, EIS); aptamer immobilized on bp-SNA/ITO with Co(bpy)3 2+ probe, BSA-blocked; linear 0.001-500 U/mL, LOD 0.13 mU/mL (not a Kd); 0.01 M PBS (sodium phosphate), pH 7.4; CA15-3 incubation 80 min at 4 °C; BSA-blocked electrode (0.1 wt%)
Conditions: protein: commercial

carbohydrate antigen 15-3 (CA15-3), sequence (P15941 24-1097): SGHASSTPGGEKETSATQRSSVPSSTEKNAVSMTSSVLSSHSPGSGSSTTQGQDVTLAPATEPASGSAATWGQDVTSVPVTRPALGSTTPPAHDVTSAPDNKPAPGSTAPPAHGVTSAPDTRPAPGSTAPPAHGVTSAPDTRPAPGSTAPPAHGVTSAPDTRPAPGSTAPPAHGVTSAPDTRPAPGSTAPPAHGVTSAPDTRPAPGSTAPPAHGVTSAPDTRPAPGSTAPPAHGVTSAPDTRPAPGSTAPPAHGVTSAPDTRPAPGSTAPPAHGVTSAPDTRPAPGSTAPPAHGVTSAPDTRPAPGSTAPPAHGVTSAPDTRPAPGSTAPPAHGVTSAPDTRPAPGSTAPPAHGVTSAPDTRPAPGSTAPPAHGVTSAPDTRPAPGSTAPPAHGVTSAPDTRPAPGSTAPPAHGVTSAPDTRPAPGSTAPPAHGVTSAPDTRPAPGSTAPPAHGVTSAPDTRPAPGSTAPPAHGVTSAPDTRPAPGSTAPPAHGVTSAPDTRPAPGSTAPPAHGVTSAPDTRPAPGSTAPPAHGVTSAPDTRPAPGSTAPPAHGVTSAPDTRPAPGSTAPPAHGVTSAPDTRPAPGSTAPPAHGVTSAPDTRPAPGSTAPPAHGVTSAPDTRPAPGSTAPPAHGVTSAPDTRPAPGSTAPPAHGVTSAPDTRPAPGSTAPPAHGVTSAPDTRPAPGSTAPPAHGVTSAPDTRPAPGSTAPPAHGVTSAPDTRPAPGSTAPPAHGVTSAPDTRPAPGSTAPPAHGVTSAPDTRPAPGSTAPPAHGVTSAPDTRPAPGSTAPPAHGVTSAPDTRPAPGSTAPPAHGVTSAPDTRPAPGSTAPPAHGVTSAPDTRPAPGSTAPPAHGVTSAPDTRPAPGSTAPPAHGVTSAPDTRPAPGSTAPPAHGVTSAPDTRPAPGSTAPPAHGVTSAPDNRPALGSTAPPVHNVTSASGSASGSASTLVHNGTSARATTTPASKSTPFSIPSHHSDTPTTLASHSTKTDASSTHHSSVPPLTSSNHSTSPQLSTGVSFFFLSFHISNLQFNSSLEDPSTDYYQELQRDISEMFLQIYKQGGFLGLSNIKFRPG

CTTCCTCCCTGAAGTGAATATGACAGATCACAACTTCCCTCCTTC (ssDNA, 5'-NH2) [CA15-3 aptamer (amino-modified)]
binding result: binds
